Source: patent US20210063414A1, “METHODS FOR PREVENTING AND/OR TREATING BONE LOSS CONDITIONS BY MODULATING IRISIN” (Dana-Farber Cancer Institute, Inc., priority 2018, published 2021)

What was measured:
Assay in all cases: Crosslinking/co-immunoprecipitation/mass spectrometry (TMT quantitative proteomics) to identify irisin receptors
Type in all cases: binding
[1] = molecular target: T1, MLO-Y4 cell surface proteins (Mus musculus, UniProt P62737); conditions: co-precipitated protein Acta2 (ACTA_MOUSE)
T1 construct: endogenous in cells; host or cells: MLO-Y4
Outline: (§1)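 Mouse MLO-Y4 cells were switched to serum-free FreeStyle medium for 4 h, chilled, then exposed to 10 nM His-tagged irisin (or adipsin as control) for 20 min. Cells were crosslinked with 1.5 mM DTSSP (30 min, ice), and bound proteins were pulled down on Ni-NTA and eluted with 250 mM imidazole. Eluates were separated by SDS-PAGE, trypsin-digested in gel, TMT 6-plex labelled and quantified by MS3-based LC-MS/MS on an Orbitrap Fusion Lumos.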

[2] = molecular target: T2, MLO-Y4 cell surface proteins (Mus musculus, UniProt Q3U2P1); conditions: co-precipitated protein Sec24a (SC24A_MOUSE)
T2 construct: endogenous in cells; host or cells: MLO-Y4
T2 sequence (Q3U2P1 1-1090): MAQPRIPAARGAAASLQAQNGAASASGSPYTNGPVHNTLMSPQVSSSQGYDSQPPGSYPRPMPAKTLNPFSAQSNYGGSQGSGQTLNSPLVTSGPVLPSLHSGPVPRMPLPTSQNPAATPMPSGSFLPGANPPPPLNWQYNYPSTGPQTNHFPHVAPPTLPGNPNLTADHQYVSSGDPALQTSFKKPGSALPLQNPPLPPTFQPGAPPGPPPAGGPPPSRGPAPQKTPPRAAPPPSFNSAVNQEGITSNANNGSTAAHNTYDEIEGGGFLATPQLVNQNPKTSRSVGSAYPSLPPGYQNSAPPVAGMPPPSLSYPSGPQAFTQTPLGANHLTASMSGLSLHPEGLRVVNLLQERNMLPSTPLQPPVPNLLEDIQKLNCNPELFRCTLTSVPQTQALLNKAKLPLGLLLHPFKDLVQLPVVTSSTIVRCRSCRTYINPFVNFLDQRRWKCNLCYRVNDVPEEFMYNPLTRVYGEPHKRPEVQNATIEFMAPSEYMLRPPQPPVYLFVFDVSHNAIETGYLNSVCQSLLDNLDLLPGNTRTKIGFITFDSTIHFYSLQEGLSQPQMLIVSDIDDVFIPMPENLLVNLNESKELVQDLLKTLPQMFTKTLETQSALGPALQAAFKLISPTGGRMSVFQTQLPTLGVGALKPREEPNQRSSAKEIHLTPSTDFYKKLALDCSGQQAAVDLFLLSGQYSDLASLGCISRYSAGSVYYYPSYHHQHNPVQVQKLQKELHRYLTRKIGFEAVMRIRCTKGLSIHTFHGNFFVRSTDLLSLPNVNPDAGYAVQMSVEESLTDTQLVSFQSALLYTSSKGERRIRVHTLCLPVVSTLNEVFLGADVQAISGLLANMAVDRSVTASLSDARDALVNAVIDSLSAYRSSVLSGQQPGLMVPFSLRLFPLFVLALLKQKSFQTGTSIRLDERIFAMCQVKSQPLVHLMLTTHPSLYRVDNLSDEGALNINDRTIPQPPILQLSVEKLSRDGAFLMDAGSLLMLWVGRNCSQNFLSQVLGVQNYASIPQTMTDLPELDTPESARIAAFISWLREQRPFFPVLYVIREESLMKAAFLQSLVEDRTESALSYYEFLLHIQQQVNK
Outline: as §1

[3] = molecular target: T3, MLO-Y4 cell surface proteins (Mus musculus, UniProt Q66L42); conditions: co-precipitated protein Map3k10 (M3K10_MOUSE)
T3 construct: endogenous in cells; host or cells: MLO-Y4
Outline: as §1

T3 sequence (Q66L42 whole entry): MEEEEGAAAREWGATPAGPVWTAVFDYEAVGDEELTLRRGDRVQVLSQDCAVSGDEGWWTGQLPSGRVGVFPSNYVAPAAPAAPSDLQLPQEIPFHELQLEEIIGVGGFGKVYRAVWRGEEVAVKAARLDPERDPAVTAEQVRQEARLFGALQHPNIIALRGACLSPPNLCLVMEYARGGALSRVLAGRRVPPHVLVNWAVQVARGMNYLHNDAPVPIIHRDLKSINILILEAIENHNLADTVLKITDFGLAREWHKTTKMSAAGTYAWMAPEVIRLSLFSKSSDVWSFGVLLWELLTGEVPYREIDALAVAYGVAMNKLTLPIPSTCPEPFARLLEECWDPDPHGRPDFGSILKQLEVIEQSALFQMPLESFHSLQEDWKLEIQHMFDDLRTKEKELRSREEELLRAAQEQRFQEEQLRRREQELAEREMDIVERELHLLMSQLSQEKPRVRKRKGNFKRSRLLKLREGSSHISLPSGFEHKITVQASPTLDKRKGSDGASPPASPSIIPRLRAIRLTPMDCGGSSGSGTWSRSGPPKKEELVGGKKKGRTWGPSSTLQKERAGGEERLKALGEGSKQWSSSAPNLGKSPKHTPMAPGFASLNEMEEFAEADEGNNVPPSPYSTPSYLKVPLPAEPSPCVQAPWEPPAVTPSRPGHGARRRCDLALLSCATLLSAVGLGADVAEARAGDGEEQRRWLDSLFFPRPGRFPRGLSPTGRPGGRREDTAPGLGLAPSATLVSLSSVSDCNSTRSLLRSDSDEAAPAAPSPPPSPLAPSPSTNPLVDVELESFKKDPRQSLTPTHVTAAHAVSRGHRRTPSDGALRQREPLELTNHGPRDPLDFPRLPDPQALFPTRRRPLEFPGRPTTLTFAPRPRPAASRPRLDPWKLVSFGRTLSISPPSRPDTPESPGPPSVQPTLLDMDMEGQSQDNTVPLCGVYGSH

B1: irisin: secreted cleaved form of FNDC5; recombinant human/mouse irisin with C-terminal his tag produced in HEK293 cells (protein)
chain: DSPSAPVNVTVRHLKANSAVVSWDVLEDEVVIGFAISQQKKDVRMLRFIQEVNTTTRSCALWDLEEDTEYIVHVQAISIQGQSPASEPVLFKTPREAEKMASKNKDEVTMKE
modifications: left off: small tags and cut ends
notes: secreted cleaved form of FNDC5; recombinant human/mouse irisin with C-terminal his tag produced in HEK293 cells
With B1 the TMT signal-to-noise ratio [1] was 107.601, the “irisin/adipsin TMT signal-to-noise ratio” value [1] was 0.298 and the TMT signal-to-noise ratio [2] was 29.3088. For the same molecule, the “irisin/adipsin TMT signal-to-noise ratio” value [2] was 0.246, the TMT signal-to-noise ratio [3] was 3.455 and the “irisin/adipsin TMT signal-to-noise ratio” value [3] was 0.032.
